Assay results from PMC7954794, “Protein context shapes the specificity of SH3 domain-mediated interactions in vivo” (Nature Communications, 2021).

System: PPIs identified as affected by the SH3 domain deletions
Experiment: Liquid DHFR-PCA low-throughput validation of PPIs affected by SH3 deletion (Fig. S1D-E)
Format: cell-based, Saccharomyces cerevisiae
Details: label = prey, liquid DHFR-PCA, prey _1 = lost, _2 = gained in screen
In short: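 Growth at 30 °C was tracked by OD each 15 min over 72 h in agar-free PCA selection medium, starting at 0.1 OD. Cells were diploids selected after mating, first cultured 48 h with NAT and HPH in synthetic complete MSG medium, pH 6.0.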

B1: YOL100W_1 (protein, UniProt Q12236 1-1081, looked up)
Serine/threonine-protein …: MYFDKDNSMSPRPLLPSDEQKLNINLLTKKEKFSHLDPHYDAKATPQRSTSNRNVGDLLLEKRTAKPMIQKALTNTDNFIEMYHNQQRKNLDDDTIKEVMINDENGKTVASTNDGRYDNDYDNNDINDQKTLDNIAGSPHMEKNRNKVKIEHDSSSQKPIAKESSKAQKNIIKKGIKDFKFGSVIGDGAYSTVMLATSIDTKKRYAAKVLNKEYLIRQKKVKYVSIEKTALQKLNNSPSVVRLFSTFQDESSLYFLLEYAPNGDFLSLMKKYGSLDETCARYYAAQIIDAIDYLHSNGIIHRDIKPENILLDGEMKIKLTDFGTAKLLNPTNNSVSKPEYDLSTRSKSFVGTAEYVSPELLNDSFTDYRCDIWAFGCILFQMIAGKPPFKATNEYLTFQKVMKVQYAFTPGFPLIIRDLVKKILVKNLDRRLTISQIKEHHFFKDLNFKDGSVWSKTPPEIKPYKINAKSMQAMPSGSDRKLVKKSVNTLGKSHLVTQRSASSPSVEETTHSTLYNNNTHASTESEISIKKRPTDERTAQILENARKGINNRKNQPGKRTPSGAASAALAASAALTKKTMQSYPTSSSKSSRSSSPATTSRPGTYKRTSSTESKPFAKSPPLSASVLSSKVPMPPYTPPMSPPMTPYDTYQMTPPYTTKQQDYSDTAIAAPKPCISKQNVKNSTDSPLMNKQDIQWSFYLKNINEHVLRTEKLDFVTTNYDILEKKMLKLNGSLLDPQLFGKPRHTFLSQVARSGGEVTGFRNDPTMTAYSKTEDTYYSKNIIDLQLLEDDYRIEGGDLSELLTNRSGEGYKCNQNSSPMKDDDKSESNNKGSSVFSGKIKKLFHPTSAAETLSSSDEKTKYYKRTIVMTSFGRFLVFAKRRQPNPVTNLKYELEYDINLRQQGTKIKELIIPLEMGTNHIVVIQTPYKSFLLSTDKKTTSKLFTVLKKILNSNTNKIEKELLQRNQKVIERRTSSSGRAIPKDLPTSKSPSPKPRTHSQSPSISKHNSFSESINSAKSNRSSRIFETFINAKEQNSKKHAAPVPLTSKLVNGLPKRQVTVGLGLNTGTNFKNSSAKSKRS
Q: How did the “Ratio (Deletedscore / WTscore)” value (bait MYO3) turn out when B1 was run?
A: 0.53

B2: YML035C_1 (protein, UniProt P15274 1-810, looked up)
AMP deaminase: MDNQATQRLNDLSLEPAPSHDEQDGSGLVIDIDQRKIGDEQAGVVVDDETPPLEQQDSHESLAADSRNANFSYHENQQLLENGTKQLALDEHDSHSAILEQPSHSTNCSSSNIAAMNKGHDSADHASQNSGGKPRTLSASAQHILPETLKSFAGAPVVNKQVRTSASYKMGMLADDASQQFLDDPSSELIDLYSKVAECRNLRAKYQTISVQNDDQNPKNKPGWVVYPPPPKPSYNSDTKTVVPVTNKPDAEVFDFTKCEIPGEDPDWEFTLNDDDSYVVHRSGKTDELIAQIPTLRDYYLDLEKMISISSDGPAKSFAYRRLQYLEARWNLYYLLNEYQETSVSKRNPHRDFYNVRKVDTHVHHSACMNQKHLLRFIKHKLRHSKDEKVIFRDGKLLTLDEVFRSLHLTGYDLSIDTLDMHAHKDTFHRFDKFNLKYNPIGESRLREIFLKTNNYIKGTYLADITKQVIFDLENSKYQNCEYRISVYGRSLDEWDKLASWVIDNKVISHNVRWLVQIPRLYDIYKKTGIVQSFQDICKNLFQPLFEVTKNPQSHPKLHVFLQRVIGFDSVDDESKVDRRFHRKYPKPSLWEAPQNPPYSYYLYYLYSNVASLNQWRAKRGFNTLVLRPHCGEAGDPEHLVSAYLLAHGISHGILLRKVPFVQYLYYLDQVGIAMSPLSNNALFLTYDKNPFPRYFKRGLNVSLSTDDPLQFSYTREPLIEEYSVAAQIYKLSNVDMCELARNSVLQSGWEAQIKKHWIGKDFDKSGVEGNDVVRTNVPDIRINYRYDTLSTELELVNHFANFKRTIEEK
Q: With B2 as the molecule, how does the “Ratio (Deletedscore / WTscore)” value (bait) read?
A: 0.7244

B3: YJL020C_1 (protein, UniProt P47068 1-1157, looked up)
Myosin tail …: MSEPEVPFKVVAQFPYKSDYEDDLNFEKDQEIIVTSVEDAEWYFGEYQDSNGDVIEGIFPKSFVAVQGSEVGKEAESSPNTGSTEQRTIQPEVEQKDLPEPISPETKKETLSGPVPVPAATVPVPAATVPVPAATAVSAQVQHDSSSGNGERKVPMDSPKLKARLSMFNQDITEQVPLPKSTHLDLENIPVKKTIVADAPKYYVPPGIPTNDTSNLERKKSLKENEKKIVPEPINRAQVESGRIETENDQLKKDLPQMSLKERIALLQEQQRLQAAREEELLRKKAKLEQEHERSAVNKNEPYTETEEAEENEKTEPKPEFTPETEHNEEPQMELLAHKEITKTSREADEGTNDIEKEQFLDEYTKENQKVEESQADEARGENVAEESEIGYGHEDREGDNDEEKEEEDSEENRRAALRERMAKLSGASRFGAPVGFNPFGMASGVGNKPSEEPKKKQHKEKEEEEPEQLQELPRAIPVMPFVDPSSNPFFRKSNLSEKNQPTETKTLDPHATTEHEQKQEHGTHAYHNLAAVDNAHPEYSDHDSDEDTDDHEFEDANDGLRKHSMVEQAFQIGNNESENVNSGEKIYPQEPPISHRTAEVSHDIENSSQNTTGNVLPVSSPQTRVARNGSINSLTKSISGENRRKSINEYHDTVSTNSSALTETAQDISMAAPAAPVLSKVSHPEDKVPPHPVPSAPSAPPVPSAPSVPSAPPVPPAPPALSAPSVPPVPPVPPVSSAPPALSAPSIPPVPPTPPAPPAPPAPLALPKHNEVEEHVKSSAPLPPVSEEYHPMPNTAPPLPRAPPVPPATFEFDSEPTATHSHTAPSPPPHQNVTASTPSMMSTQQRVPTSVLSGAEKESRTLPPHVPSLTNRPVDSFHESDTTPKVASIRRSTTHDVGEISNNVKIEFNAQERWWINKSAPPAISNLKLNFLMEIDDHFISKRLHQKWVVRDFYFLFENYSQLRFSLTFNSTSPEKTVTTLQERFPSPVETQSARILDEYAQRFNAKVVEKSHSLINSHIGAKNFVSQIVSEFKDEVIQPIGARTFGATILSYKPEEGIEQLMKSLQKIKPGDILVIRKAKFEAHKKIGKNEIINVGMDSAAPYSSVVTDYDFTKNKFRVIENHEGKIIQNSYKLSHMKSGKLKVFRIVARGYVGW
Q: With B3 as the molecule, how does the “Ratio (Deletedscore / WTscore)” value (bait MYO3) read?
A: 0.4075

Q: What about the “Ratio (Deletedscore / WTscore)” value (bait MYO5) of the same molecule?
A: 0.4895

B4: YJL095W_1 (protein, UniProt Q01389 1-1478, looked up)
Serine/threonine-protein …: MPFLRKIAGTAHTHSRSDSNSSVKFGHQPTSSVASTKSSSKSPRATSRKSIYDDIRSQFPNLTPNSTSSQFYESTPVIEQSFNWTTDDHISAGTLENPTSFTNSSYKNDNGPSSLSDSRKSSGGNSVNSLSFDKLILSWDPTDPDEWTMHRVTSWFKFHDFPESWILFFKKHQLFGHRFIKLLAYDNFAVYEKYLPQTKTASYTRFQQLLKKTMTKNVTNSHIRQKSASKLKSSRSSSESIKSKLKNSKSQEDISNSRSTSESALSPTKSGPSKTDEKNFLHSTSTHQKTKSASSLYRRSFISLRGSSSSNASSAKSPSNIKLSIPARPHSIIESNSTLTKSASPPASPSYPSIFRRHHKSSSSESSLLNSLFGSGIGEEAPTKPNPQGHSLSSENLAKGKSKHYETNVSSPLKQSSLPTSDDKGNLWNKFKRKSQIGVPSPNTVAYVTSQETPSLKSNSSTATLTVQTADVNIPSPSSSPPPIPKTANRSLEVISTEDTPKISSTTASFKETYPDCINPDKTVPVPVNNQKYSVKNFLLDQKFYPLKKTGLNDSENKYILVTKDNVSFVPLNLKSVAKLSSFKESALTKLGINHKNVTFHMTDFDCDIGAAIPDDTLEFLKKSLFLNTSGKIYIKDQMKLQQKPKPAPLTSENNVPLKSVKSKSSMRSGTSSLIASTDDVSIVTSSSDITSFDEHASGSGRRYPQTPSYYYDRVSNTNPTEELNYWNIKEVLSHEENAPKMVFKTSPKLELNLPDKGSKLNIPTPITENESKSSFQVLRKDEGTEIDFNHRRESPYTKPELAPKREAPKPPANTSPQRTLSTSKQNKPIRLVRASTKISRSKRSKPLPPQLLSSPIEASSSSPDSLTSSYTPASTHVLIPQPYKGANDVMRRLKTDQDSTSTSPSLKMKQKVNRSNSTVSTSNSIFYSPSPLLKRGNSKRVVSSTSAADIFEENDITFADAPPMFDSDDSDDDSSSSDDIIWSKKKTAPETNNENKKDEKSDNSSTHSDEIFYDSQTQDKMERKMTFRPSPEVVYQNLEKFFPRANLDKPITEGIASPTSPKSLDSLLSPKNVASSRTEPSTPSRPVPPDSSYEFIQDGLNGKNKPLNQAKTPKRTKTIRTIAHEASLARKNSVKLKRQNTKMWGTRMVEVTENHMVSINKAKNSKGEYKEFAWMKGEMIGKGSFGAVYLCLNVTTGEMMAVKQVEVPKYSSQNEAILSTVEALRSEVSTLKDLDHLNIVQYLGFENKNNIYSLFLEYVAGGSVGSLIRMYGRFDEPLIKHLTTQVLKGLAYLHSKGILHRDMKADNLLLDQDGICKISDFGISRKSKDIYSNSDMTMRGTVFWMAPEMVDTKQGYSAKVDIWSLGCIVLEMFAGKRPWSNLEVVAAMFKIGKSKSAPPIPEDTLPLISQIGRNFLDACFEINPEKRPTANELLSHPFSEVNETFNFKSTRLAKFIKSNDKLNSSKLRITSQENKTE
Q: For B4, which “Ratio (Deletedscore / WTscore)” value (bait NBP2) is on record?
A: 0.6492

B5: YDL160C_1 (protein, UniProt P39517 1-506, looked up)
ATP-dependent RNA helicase …: MGSINNNFNTNNNSNTDLDRDWKTALNIPKKDTRPQTDDVLNTKGNTFEDFYLKRELLMGIFEAGFEKPSPIQEEAIPVAITGRDILARAKNGTGKTAAFVIPTLEKVKPKLNKIQALIMVPTRELALQTSQVVRTLGKHCGISCMVTTGGTNLRDDILRLNETVHILVGTPGRVLDLASRKVADLSDCSLFIMDEADKMLSRDFKTIIEQILSFLPPTHQSLLFSATFPLTVKEFMVKHLHKPYEINLMEELTLKGITQYYAFVEERQKLHCLNTLFSKLQINQAIIFCNSTNRVELLAKKITDLGYSCYYSHARMKQQERNKVFHEFRQGKVRTLVCSDLLTRGIDIQAVNVVINFDFPKTAETYLHRIGRSGRFGHLGLAINLINWNDRFNLYKIEQELGTEIAAIPATIDKSLYVAENDETVPVPFPIEQQSYHQQAIPQQQLPSQQQFAIPPQQHHPQFMVPPSHQQQQAYPPPQMPSQQGYPPQQEHFMAMPPGQSQPQY
Q: How did the “Ratio (Deletedscore / WTscore)” value (bait RVS167) turn out when B5 was run?
A: 0.8286

B6: YDR329C_2 (protein, UniProt P28795 1-441, looked up)
Peroxisomal biogenesis factor …: MAPNQRSRSLLQRHRGKVLISLTGIAALFTTGSVVVFFVKRWLYKQQLRITEQHFIKEQIKRRFEQTQEDSLYTIYELLPVWRMVLNENDLNLDSIVTQLKDQKNQLTRAKSSESRESSPLKSKAELWNELELKSLIKLVTVTYTVSSLILLTRLQLNILTRNEYLDSAIKLTMQQENCNKLQNRFYNWVTSWWSDPEDKADDAMVMAAKKSKKEGQEVYINEQAFLSLSWWILNKGWLSYNEIITNQIEIEFDGIHPRDTLTLEEFSSRLTNIFRNTNSQIFQQNNNNLTSILLPKDSSGQEFLLSQTLDADALTSFHSNTLVFNQLVNELTQCIESTATSIVLESLINESFHFIMNKVGIKTIAKKKPGQEDQQQYQMAVFAMSMKDCCQEMLQTTAGSSHSGSVNEYLATLDSVQPLDDLSASVYSNFGVSSSFSFKP
Q: Which “Ratio (Deletedscore / WTscore)” value (bait BEM1-1) does the source give for B6 here?
A: 1.085
